Measured values: PMC12552129, “Methylthio-alkane reductases use nitrogenase metalloclusters for carbon–sulfur bond cleavage” (Nature Catalysis, 2025)
Values joined by “and” are separate entries in the source; they are usually repeats but may differ in a detail not shown here. Equal entries are not always repeated.

T1: Mar(DK)2, catalytic component of the methylthio-alkane reductase from Rhodospirillum rubrum (Rhodospirillum rubrum, UniProt Q2RW97 1-511; Q2RW98 1-466)
T1 construct: MarD of Rhodospirillum rubrum, as the chain of m2; MarK of Rhodospirillum rubrum, as the chain of m3; Heterotetramer by mass photometry (227 kDa measured, 217 kDa theoretical); holds two P-clusters and two [Fe8S9C]-clusters; No tag cleavage is described; The deposited model (MarDK2H2) holds only one of the two MarD copies; copies: 2 + 2
T1 sequence 1: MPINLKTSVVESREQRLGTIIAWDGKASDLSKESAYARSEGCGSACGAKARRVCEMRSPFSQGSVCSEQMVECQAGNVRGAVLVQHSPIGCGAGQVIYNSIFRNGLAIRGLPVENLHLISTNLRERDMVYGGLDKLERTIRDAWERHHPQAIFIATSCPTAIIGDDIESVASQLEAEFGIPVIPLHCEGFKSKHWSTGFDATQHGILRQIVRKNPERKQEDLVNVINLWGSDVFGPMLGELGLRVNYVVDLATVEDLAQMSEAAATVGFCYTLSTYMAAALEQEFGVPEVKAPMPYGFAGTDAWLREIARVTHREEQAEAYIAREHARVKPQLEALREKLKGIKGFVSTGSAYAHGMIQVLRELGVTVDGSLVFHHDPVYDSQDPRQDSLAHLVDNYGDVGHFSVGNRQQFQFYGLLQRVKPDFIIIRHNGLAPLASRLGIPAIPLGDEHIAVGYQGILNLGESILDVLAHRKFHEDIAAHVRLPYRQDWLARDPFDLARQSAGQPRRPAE
T1 sequence 2: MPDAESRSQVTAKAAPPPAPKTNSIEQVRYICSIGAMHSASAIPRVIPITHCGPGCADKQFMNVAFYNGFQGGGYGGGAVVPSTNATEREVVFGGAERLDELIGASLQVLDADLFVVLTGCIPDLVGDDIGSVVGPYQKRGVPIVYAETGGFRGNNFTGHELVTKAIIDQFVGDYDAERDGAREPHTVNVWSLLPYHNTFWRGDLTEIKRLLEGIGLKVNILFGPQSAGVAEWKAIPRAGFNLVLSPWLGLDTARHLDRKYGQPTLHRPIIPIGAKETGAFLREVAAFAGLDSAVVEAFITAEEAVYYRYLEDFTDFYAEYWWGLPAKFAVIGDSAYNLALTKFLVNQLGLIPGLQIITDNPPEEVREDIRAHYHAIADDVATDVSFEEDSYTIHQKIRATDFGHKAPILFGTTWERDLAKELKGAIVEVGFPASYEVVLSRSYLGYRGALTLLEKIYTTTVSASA

T2: MarD subunit of the methylthio-alkane reductase catalytic component from Rhodospirillum rubrum (Strep-tagged) (Rhodospirillum rubrum, UniProt Q2RW97 1-511)
T2 construct: MarD, subunit of the catalytic component of the methylthio-alkane reductase (marHDK) of Rhodospirillum rubrum; 57.5 kDa with the Strep tag; Holds the [Fe8S9C]-cluster; also called D1; source: Rhodobacter capsulatus MM0422 (plasmid-based, anfH promoter), soluble fraction of the lysate; purified anaerobically with MarK (Strep-Tactin XT 4Flow, PD-10 desalting); not shown: Strep-tag II, C-terminal, …
T2 sequence: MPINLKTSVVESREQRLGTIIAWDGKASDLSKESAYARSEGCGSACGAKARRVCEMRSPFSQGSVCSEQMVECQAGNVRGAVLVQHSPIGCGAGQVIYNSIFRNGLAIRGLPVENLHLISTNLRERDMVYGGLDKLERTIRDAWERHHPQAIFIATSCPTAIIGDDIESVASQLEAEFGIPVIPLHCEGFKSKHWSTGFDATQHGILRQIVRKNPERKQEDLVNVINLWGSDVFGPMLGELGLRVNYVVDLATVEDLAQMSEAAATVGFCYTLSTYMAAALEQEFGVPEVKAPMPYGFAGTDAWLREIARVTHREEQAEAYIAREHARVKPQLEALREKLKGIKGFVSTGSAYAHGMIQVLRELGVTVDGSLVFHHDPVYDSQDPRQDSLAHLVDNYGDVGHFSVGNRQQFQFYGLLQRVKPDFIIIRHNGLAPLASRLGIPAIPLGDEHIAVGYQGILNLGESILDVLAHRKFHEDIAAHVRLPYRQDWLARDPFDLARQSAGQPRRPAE


Columns and labels:
[1] = biological target: T1, Mar(DK)2, catalytic component of the …; assay: cryo-EM structure; MgADP-AlF3-trapped complex: 22 nmol MarH2 and 3 nmol Mar(DK)2 in 100 mM MOPS pH 7.3, 50 mM Tris pH 7.8, 100 mM NaCl, 5 mM DT, 4 mM NaF, 0.2 mM AlCl3, 8 mM MgCl2, 1 mM ATP, 3 h at 30 °C; isolated by size-exclusion chromatography (HiLoad 26/600 Superdex 200 pg); anaerobic single-particle cryo-EM; conditions: both partners purified
[2] = biological target: the molecule itself; assay: mass photometry; TwoMP mass photometer; 0.5 µl of sample (500 nM stock, 4 mM sodium DT) added to 19.5 µl anaerobic measurement buffer (150 mM NaCl, 50 mM Tris pH 7.8, 10% glycerol, 10 mM sodium DT); each component measured alone
[3] = biological target: T2, MarD subunit of the methylthio-alkane …; assay: as above; conditions: both partners purified

| stoichiometry N [1] | binding result [3] | Binder | stoichiometry N [2] |
| --- | --- | --- | --- |
| 1 and 2 | – | MarH2, reductase component of the methylthio-alkane reductase from Rhodospirillum rubrum (His-tagged MarH) (enzyme, MarH, reductase subunit of the methylthio-alkane reductase (marHDK) of Rhodospirillum rubrum; 31.9 kDa with the His tag; Homodimer by mass photometry; holds one [Fe4S4]-cluster in the dimer interface; No tag cleavage is described, and the theoretical mass of 64 kDa equals twice the 31.9 kDa of His-tagged MarH; also called H1 and H2; source: Rhodobacter capsulatus MM0422 (plasmid-based, anfH …)) AKSPKQIAIYGKGGIGKSTTTSNISAALAEAGYKVMQFGCDPKSDSTNTLRGGDYIPSVLDLLRENARVDAHEAIFQGFGGIYCVEAGGPAPGVGCAGRGIITAVELLKQQNVFEELDLDYVIFDVLGDVVCGGFAVPIREGIAEHVFTVSSSDFMAIYAANNLFKGIQKYSNAGGALLGGVIANSINTDFHRDIIDDFVARTQTQVVQYVPRSLTVTQAELQGRTTIEAAPESAQAEIYRTLARSIADHTDSKVPTPLNAQELRDWSASWANQLIEIERASQPIPALAS | 2 |
| – | binds | MarK subunit of the methylthio-alkane reductase catalytic component from Rhodospirillum rubrum (enzyme, MarK, subunit of the catalytic component of the methylthio-alkane reductase (marHDK) of Rhodospirillum rubrum; 50.8 kDa; No tag is described for MarK; also called K1 and K2; source: Rhodobacter capsulatus MM0422 (plasmid-based, anfH promoter), soluble fraction of the lysate; purified anaerobically with Strep-tagged MarD (Strep-Tactin XT 4Flow, PD-10 desalting)) MPDAESRSQVTAKAAPPPAPKTNSIEQVRYICSIGAMHSASAIPRVIPITHCGPGCADKQFMNVAFYNGFQGGGYGGGAVVPSTNATEREVVFGGAERLDELIGASLQVLDADLFVVLTGCIPDLVGDDIGSVVGPYQKRGVPIVYAETGGFRGNNFTGHELVTKAIIDQFVGDYDAERDGAREPHTVNVWSLLPYHNTFWRGDLTEIKRLLEGIGLKVNILFGPQSAGVAEWKAIPRAGFNLVLSPWLGLDTARHLDRKYGQPTLHRPIIPIGAKETGAFLREVAAFAGLDSAVVEAFITAEEAVYYRYLEDFTDFYAEYWWGLPAKFAVIGDSAYNLALTKFLVNQLGLIPGLQIITDNPPEEVREDIRAHYHAIADDVATDVSFEEDSYTIHQKIRATDFGHKAPILFGTTWERDLAKELKGAIVEVGFPASYEVVLSRSYLGYRGALTLLEKIYTTTVSASA | – |
